Measured values taken from patent publication US20200317768A1 (published 2020).
Blank lines part the entries; values can stand above or below the binder they belong to.

Key:
Human latent myostatin [1] = biological target: T1, Human latent myostatin (human, UniProt O14793 25-266; O14793 267-375); experiment: SPR (BIACORE T200) 37C, pH 7.4, antibody captured by ProA/G
T1 construct: also called human myostatin latent form
T1 sequence 1: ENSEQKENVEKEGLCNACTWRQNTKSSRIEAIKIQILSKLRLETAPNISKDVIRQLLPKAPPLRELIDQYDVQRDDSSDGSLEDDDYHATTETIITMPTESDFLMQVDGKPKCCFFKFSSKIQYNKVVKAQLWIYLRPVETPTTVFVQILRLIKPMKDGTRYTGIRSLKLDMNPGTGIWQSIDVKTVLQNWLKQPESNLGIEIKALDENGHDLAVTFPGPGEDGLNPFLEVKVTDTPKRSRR
T1 sequence 2: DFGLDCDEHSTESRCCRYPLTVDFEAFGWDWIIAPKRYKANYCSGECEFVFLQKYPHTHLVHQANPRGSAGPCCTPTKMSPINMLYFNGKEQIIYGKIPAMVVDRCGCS
Method: (§1) ProA/G (Pierce) was immobilized onto all flow cells of a CM4 chip using an amine coupling kit (GE Healthcare). All antibodies and analytes were prepared in ACES pH7.4 or pH5.8 buffer containing 20 mM ACES, 150 mM NaCl, 1.2 mM CaCl₂, 0.05% TWEEN®) 20, 0.005% NaN₃. […] Human, cyno, and mouse latent myostatin was injected at 3.125 to 50 nM prepared by two-fold serial dilution, followed by dissociation. The sensor surface was regenerated each cycle with 10 mM Glycine HCl pH1.5. Binding affinity was determined by processing and fitting the data to a 1:1 binding model using BIACORE® T200 Evaluation software, version 2.0 (GE Healthcare).

Mouse latent myostatin [2] = biological target: T2, Mouse latent myostatin (mouse, UniProt O08689 26-267; O08689 268-376); experiment: as above
T2 construct: Latent form = complex of two propeptides and the mature dimer
T2 sequence 1: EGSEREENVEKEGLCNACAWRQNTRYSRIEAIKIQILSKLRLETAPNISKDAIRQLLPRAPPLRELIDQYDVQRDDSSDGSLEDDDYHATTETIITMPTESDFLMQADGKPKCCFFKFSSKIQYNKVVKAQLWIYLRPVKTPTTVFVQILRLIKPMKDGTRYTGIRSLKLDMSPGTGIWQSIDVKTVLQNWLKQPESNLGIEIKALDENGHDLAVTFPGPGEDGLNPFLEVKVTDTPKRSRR
T2 sequence 2: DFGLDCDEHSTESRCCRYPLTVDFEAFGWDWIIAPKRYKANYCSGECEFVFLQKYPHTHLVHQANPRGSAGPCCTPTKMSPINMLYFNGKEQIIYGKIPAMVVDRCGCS
Method: as §1

[3] = biological target: T3, Cynomolgus monkey latent myostatin (cynomolgus monkey, UniProt Q95J86 25-266; Q95J86 267-375); experiment: as above
T3 construct: Latent form = complex of two propeptides and the mature dimer; also called Cyno latent myostatin
T3 sequence 1: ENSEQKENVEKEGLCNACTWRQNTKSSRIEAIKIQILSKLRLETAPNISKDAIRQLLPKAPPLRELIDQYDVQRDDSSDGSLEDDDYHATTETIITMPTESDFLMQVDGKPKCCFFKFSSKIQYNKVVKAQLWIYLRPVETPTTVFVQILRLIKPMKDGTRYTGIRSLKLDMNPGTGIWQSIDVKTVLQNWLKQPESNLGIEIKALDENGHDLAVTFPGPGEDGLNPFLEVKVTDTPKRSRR
T3 sequence 2: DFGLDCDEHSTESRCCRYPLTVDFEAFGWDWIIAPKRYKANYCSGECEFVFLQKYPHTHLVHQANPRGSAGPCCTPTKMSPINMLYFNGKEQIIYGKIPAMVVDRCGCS
Method: as §1

Human latent myostatin [4] = biological target: T1, Human latent myostatin; experiment: SPR (BIACORE T200) 37C, pH 5.8, antibody captured by ProA/G
Method: as §1

Mouse latent myostatin [5] = biological target: T2, Mouse latent myostatin; experiment: as above
Method: as §1

[6] = biological target: T3, Cynomolgus monkey latent myostatin; experiment: as above
Method: as §1

Human latent myostatin [7] = biological target: T1, Human latent myostatin; experiment: SPR 37C; KD pH 5.8 / KD pH 7.4
Method: as §1

Mouse latent myostatin [8] = biological target: T2, Mouse latent myostatin; experiment: SPR 37C; KD pH 5.8 / KD pH 7.4
Method: as §1

[9] = biological target: T3, Cynomolgus monkey latent myostatin; experiment: SPR 37C; KD pH 5.8 / KD pH 7.4
Method: as §1

Human latent myostatin [10] = biological target: T4, Human latent myostatin (human, UniProt O14793 25-266; O14793 267-375); experiment: SPR (BIACORE), additional dissociation phase at pH5.8 after dissociation at pH7.4, Scrubber 2.0 fit
T4 construct: Biotinylated in the ELISAs; also called human myostatin latent form
T4 sequence 1: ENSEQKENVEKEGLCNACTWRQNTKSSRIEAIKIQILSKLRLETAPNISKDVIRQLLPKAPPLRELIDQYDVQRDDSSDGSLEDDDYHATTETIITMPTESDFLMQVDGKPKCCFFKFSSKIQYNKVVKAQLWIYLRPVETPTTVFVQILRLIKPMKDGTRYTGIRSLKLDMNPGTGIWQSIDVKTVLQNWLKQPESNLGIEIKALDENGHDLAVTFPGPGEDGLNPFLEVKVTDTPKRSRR
T4 sequence 2: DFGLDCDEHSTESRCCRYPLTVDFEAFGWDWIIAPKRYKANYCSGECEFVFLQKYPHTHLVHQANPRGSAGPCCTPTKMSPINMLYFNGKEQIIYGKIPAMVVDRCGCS
Method: Each amino acid in the CDRs was individually mutated to histidine using In-Fusion HD Cloning Kit (Clontech Inc, or Takara Bio company) according to the manufacturer's instructions. […] All histidine-substituted variants were evaluated by a modified BIACORE® assay as compared to that described above. Briefly, an additional dissociation phase at pH5.8 was integrated into the BIACORE® assay immediately after the dissociation phase at pH7.4. This is to assess the pH-dependent dissociation between antibody (Ab) and antigen (Ag) from the complexes formed at pH7.4 as opposed to the corresponding dissociation at pH5.8. The dissociation rate at pH5.8 buffer was determined by processing and fitting data using the Scrubber 2.0 (BioLogic Software) curve fitting software.
Antibodies with a combination of these mutations in the CDRs were then generated.

B2: Ab003 (M103205H009 / M103202L000) (antibody, human IgG1, kappa, V domains shown)
VH: QVTLKESGPVLVKPTETLTLTCTVSGIDLSSYDISWVRQAPGKGLEWVGIISHAGSTYYASWAKGRLTISKDTSKNQVVLTMTNMDPVDTATYYCARGVPAYSTGGDLWGQGTLVTVSS
VL: DIVMTQSPATLSLSPGERATLSCQSSQSVYDNNWLSWFQQKPGQPPKLLIYWASTLASGVPSRFSGSGSGTDFTLTISSLQPEDAATYYCAGGYGGGLYAFGQGTKVEIKR
notes: Histidine-substituted variant of MS1032LO00-SG1
koff (Human latent myostatin [10]): 0.00088 s⁻¹

B4: Ab006 (M103205H000 / M103202L008) (antibody, human IgG1, kappa, V domains shown)
VH: QVTLKESGPVLVKPTETLTLTCTVSGIDLSSYDISWVRQAPGKGLEWVGIISYAGSTYYASWAKGRLTISKDTSKNQVVLTMTNMDPVDTATYYCARGVPAYSTGGDLWGQGTLVTVSS
VL: DIVMTQSPATLSLSPGERATLSCQSSQSVYHNNWLSWFQQKPGQPPKLLIYWASTLASGVPSRFSGSGSGTDFTLTISSLQPEDAATYYCAGGYGGGLYAFGQGTKVEIKR
notes: as for B2
koff (Human latent myostatin [10]): 8.58e-05 s⁻¹

B6: Ab004 (M103205H026 / M103202L000) (antibody, human IgG1, kappa, V domains shown)
VH: QVTLKESGPVLVKPTETLTLTCTVSGIDLSSYDISWVRQAPGKGLEWVGIISYAGSTYYASWAKGRLTISKDTSKNQVVLTMTNMDPVDTATYYCARGVPAHSTGGDLWGQGTLVTVSS
VL: DIVMTQSPATLSLSPGERATLSCQSSQSVYDNNWLSWFQQKPGQPPKLLIYWASTLASGVPSRFSGSGSGTDFTLTISSLQPEDAATYYCAGGYGGGLYAFGQGTKVEIKR
notes: as for B2
koff (Human latent myostatin [10]): 0.000186 s⁻¹

B7: Ab005 (M103205H028 / M103202L000) (antibody, human IgG1, kappa, V domains shown)
VH: QVTLKESGPVLVKPTETLTLTCTVSGIDLSSYDISWVRQAPGKGLEWVGIISYAGSTYYASWAKGRLTISKDTSKNQVVLTMTNMDPVDTATYYCARGVPAYSHGGDLWGQGTLVTVSS
VL: DIVMTQSPATLSLSPGERATLSCQSSQSVYDNNWLSWFQQKPGQPPKLLIYWASTLASGVPSRFSGSGSGTDFTLTISSLQPEDAATYYCAGGYGGGLYAFGQGTKVEIKR
notes: as for B2
koff (Human latent myostatin [10]): 7.63e-05 s⁻¹

The remaining lines, values ahead:

Kd (Human latent myostatin [1]): 0.273 nM | Kd (Mouse latent myostatin [2]): 0.271 nM | Kd [3]: 0.326 nM | Kd (Human latent myostatin [4]): 45.8 nM | Kd (Mouse latent myostatin [5]): 28.7 nM | Kd [6]: 35.6 nM | ratio of KD at pH 5.8/pH 7.4 (Human latent myostatin [7]): 168 | ratio of KD at pH 5.8/pH 7.4 (Mouse latent myostatin [8]): 106 | ratio of KD at pH 5.8/pH 7.4 [9]: 109
B1: MS_M103240H795-SG1/M103202L1045-SK1 (antibody, human IgG1, kappa)
heavy: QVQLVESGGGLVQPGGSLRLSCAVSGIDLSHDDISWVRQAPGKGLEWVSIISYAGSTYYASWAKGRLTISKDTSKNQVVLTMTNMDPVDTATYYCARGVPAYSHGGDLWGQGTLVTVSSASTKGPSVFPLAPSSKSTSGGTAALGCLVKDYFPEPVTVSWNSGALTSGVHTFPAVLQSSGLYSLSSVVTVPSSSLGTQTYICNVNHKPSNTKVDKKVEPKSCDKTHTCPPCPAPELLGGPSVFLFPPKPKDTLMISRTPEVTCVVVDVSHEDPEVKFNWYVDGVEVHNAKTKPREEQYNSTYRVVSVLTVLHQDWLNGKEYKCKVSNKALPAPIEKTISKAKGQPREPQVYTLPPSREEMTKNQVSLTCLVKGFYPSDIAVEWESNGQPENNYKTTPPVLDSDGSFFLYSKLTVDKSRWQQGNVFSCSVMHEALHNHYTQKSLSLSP
light: DIVMTQSPATLSLSPGERATLSCTTSQSVYHENWLSWFQQKPGQPPKLLIYWASTLAYGVPSRFSGSGSGTDFTLTISSLQPEDAATYYCAGGYGGGRYAFGQGTKVEIKRTVAAPSVFIFPPSDEQLKSGTASVVCLLNNFYPREAKVQWKVDNALQSGNSQESVTEQDSKDSTYSLSSTLTLSKADYEKHKVYACEVTHQGLSSPVTKSFNRGEC
notes: also called MS1032LO19-SG1

Kd (Human latent myostatin [1]): 0.276 nM | Kd (Mouse latent myostatin [2]): 0.259 nM | Kd [3]: 0.34 nM | Kd (Human latent myostatin [4]): 25.5 nM | Kd (Mouse latent myostatin [5]): 9.88 nM | Kd [6]: 14.1 nM | ratio of KD at pH 5.8/pH 7.4 (Human latent myostatin [7]): 92 | ratio of KD at pH 5.8/pH 7.4 (Mouse latent myostatin [8]): 38 | ratio of KD at pH 5.8/pH 7.4 [9]: 41
B3: MS_M103240H1246-SG1/M103202L1045-SK1 (antibody, human IgG1, kappa, V domains shown)
VH: QVQLVESGGGLVQPGGSLRLSCAVSGIDLSHEDISWVRQAPGKGLEWVSIISYAGSKYYASWAKGRLTISKDTSKNQVVLTMTNMDPVDTATYYCARGVPAYSHGGDLWGQGTLVTVSS
VL: DIVMTQSPATLSLSPGERATLSCTTSQSVYHENWLSWFQQKPGQPPKLLIYWASTLAYGVPSRFSGSGSGTDFTLTISSLQPEDAATYYCAGGYGGGRYAFGQGTKVEIKR
notes: also called MS1032LO25-SG1

koff (Human latent myostatin [10]): 0.000415 s⁻¹
B5: Ab007 (M103205H028 / M103202L008) (antibody, human IgG1, kappa, V domains shown)
VH: QVTLKESGPVLVKPTETLTLTCTVSGIDLSSYDISWVRQAPGKGLEWVGIISYAGSTYYASWAKGRLTISKDTSKNQVVLTMTNMDPVDTATYYCARGVPAYSHGGDLWGQGTLVTVSS
VL: DIVMTQSPATLSLSPGERATLSCQSSQSVYHNNWLSWFQQKPGQPPKLLIYWASTLASGVPSRFSGSGSGTDFTLTISSLQPEDAATYYCAGGYGGGLYAFGQGTKVEIKR
notes: as for B2
